Experimental data from publication PMC7440162 (Cell, 2020).

T1: PTPRS ECD-Fc (human, UniProt Q13332 30-1282)
T1 sequence: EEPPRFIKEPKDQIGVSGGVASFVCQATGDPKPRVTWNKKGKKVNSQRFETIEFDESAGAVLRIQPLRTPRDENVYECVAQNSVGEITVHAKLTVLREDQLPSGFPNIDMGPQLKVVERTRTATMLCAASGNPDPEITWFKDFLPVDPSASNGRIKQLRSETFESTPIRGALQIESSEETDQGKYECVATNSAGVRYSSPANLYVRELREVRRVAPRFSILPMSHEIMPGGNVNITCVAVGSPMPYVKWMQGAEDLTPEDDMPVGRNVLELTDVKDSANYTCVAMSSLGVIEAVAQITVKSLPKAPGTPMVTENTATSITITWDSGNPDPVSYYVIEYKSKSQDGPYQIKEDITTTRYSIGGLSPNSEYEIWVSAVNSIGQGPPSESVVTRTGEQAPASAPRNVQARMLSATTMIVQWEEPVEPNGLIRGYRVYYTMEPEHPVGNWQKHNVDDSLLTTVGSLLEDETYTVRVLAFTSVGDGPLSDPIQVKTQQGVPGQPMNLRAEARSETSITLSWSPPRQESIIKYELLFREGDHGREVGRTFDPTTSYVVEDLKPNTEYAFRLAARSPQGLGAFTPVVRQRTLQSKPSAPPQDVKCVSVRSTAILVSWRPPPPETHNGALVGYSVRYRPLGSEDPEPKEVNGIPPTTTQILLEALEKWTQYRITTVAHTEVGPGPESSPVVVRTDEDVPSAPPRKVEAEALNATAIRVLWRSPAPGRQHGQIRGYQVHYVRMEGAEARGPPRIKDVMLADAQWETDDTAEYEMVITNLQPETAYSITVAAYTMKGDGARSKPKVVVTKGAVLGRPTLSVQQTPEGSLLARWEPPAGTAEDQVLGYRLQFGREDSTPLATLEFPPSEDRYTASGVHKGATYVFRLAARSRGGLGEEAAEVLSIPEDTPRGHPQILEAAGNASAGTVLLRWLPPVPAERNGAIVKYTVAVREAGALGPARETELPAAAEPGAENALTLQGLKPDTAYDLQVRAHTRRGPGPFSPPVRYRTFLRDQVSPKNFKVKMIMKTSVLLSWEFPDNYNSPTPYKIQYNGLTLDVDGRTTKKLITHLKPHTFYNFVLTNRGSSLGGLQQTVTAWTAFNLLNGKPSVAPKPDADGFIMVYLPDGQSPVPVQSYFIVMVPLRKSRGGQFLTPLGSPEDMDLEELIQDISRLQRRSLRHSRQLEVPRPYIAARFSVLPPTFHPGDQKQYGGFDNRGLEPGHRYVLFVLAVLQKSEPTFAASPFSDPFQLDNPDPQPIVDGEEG

T2: PTPRD ECD-Fc (human, UniProt P23468 21-1265)
T2 sequence: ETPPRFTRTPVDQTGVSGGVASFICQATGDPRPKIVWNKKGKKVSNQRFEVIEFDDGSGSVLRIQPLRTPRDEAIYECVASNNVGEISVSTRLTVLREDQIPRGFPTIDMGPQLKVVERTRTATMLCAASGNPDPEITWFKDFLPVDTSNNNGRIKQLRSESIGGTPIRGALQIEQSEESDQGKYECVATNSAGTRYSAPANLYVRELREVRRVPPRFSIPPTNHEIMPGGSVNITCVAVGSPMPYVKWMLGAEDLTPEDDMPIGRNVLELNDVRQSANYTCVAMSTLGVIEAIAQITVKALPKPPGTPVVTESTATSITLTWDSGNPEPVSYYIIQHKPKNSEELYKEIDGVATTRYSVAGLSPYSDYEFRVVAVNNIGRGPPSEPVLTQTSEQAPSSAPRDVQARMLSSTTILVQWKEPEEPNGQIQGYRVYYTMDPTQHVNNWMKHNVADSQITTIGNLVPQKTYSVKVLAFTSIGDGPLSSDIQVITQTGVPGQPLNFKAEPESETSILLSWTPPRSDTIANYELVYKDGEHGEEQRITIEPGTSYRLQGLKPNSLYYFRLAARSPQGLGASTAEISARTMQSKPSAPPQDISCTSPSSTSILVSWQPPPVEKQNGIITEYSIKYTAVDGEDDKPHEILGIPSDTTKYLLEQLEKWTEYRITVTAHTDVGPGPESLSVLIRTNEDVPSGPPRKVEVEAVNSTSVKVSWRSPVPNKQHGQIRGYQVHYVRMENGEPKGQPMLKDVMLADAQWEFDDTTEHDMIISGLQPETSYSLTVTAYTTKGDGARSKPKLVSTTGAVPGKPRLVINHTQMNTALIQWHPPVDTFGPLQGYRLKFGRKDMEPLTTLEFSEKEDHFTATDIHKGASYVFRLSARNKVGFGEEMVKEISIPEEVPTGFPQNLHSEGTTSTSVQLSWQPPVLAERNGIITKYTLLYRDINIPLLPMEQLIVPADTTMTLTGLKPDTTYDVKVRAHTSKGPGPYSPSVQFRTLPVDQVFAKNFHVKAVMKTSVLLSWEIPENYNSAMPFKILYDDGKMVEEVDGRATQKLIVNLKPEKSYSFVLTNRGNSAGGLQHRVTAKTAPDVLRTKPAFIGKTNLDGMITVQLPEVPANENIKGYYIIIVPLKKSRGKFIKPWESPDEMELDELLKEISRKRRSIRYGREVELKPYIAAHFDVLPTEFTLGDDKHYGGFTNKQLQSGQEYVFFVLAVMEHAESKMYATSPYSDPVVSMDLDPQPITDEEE

T3: PTPRF ECD-Fc (human, UniProt P10586 30-1263)
T3 sequence: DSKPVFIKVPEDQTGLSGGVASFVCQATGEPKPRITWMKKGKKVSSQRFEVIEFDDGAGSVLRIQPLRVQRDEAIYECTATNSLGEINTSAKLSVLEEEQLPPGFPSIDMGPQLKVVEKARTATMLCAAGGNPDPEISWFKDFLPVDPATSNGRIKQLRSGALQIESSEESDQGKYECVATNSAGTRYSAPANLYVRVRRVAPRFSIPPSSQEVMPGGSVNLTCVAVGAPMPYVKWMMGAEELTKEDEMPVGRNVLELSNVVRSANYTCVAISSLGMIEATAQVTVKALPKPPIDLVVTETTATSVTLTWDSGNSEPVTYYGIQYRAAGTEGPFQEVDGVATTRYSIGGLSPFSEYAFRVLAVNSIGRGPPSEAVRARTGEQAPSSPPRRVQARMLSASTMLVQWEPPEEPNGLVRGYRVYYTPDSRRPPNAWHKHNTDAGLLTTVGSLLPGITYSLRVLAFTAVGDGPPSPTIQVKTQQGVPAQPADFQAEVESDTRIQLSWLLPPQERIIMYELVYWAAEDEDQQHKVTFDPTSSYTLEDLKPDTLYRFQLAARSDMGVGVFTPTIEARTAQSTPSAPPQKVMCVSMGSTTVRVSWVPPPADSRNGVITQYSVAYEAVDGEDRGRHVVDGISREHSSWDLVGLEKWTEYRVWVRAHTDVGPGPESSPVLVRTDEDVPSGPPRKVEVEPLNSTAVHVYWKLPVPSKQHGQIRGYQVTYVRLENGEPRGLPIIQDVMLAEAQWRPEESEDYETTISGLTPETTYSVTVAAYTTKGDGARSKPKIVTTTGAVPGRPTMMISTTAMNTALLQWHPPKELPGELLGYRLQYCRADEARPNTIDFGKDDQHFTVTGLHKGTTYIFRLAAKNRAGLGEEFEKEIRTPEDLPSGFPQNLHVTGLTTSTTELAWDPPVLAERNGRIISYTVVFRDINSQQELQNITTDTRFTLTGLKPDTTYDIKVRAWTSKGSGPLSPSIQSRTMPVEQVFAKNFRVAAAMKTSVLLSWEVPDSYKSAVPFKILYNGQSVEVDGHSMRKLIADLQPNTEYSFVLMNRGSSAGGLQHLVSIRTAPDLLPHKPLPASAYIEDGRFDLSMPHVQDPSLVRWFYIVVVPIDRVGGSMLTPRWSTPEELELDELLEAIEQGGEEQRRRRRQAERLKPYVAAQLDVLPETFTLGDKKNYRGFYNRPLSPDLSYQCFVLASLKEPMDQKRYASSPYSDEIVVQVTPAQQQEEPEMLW

T4: ICAM5 ECD-Fc (human, UniProt Q9UMF0 32-835, biotin on the AviTag (as SPR ligand))
T4 sequence: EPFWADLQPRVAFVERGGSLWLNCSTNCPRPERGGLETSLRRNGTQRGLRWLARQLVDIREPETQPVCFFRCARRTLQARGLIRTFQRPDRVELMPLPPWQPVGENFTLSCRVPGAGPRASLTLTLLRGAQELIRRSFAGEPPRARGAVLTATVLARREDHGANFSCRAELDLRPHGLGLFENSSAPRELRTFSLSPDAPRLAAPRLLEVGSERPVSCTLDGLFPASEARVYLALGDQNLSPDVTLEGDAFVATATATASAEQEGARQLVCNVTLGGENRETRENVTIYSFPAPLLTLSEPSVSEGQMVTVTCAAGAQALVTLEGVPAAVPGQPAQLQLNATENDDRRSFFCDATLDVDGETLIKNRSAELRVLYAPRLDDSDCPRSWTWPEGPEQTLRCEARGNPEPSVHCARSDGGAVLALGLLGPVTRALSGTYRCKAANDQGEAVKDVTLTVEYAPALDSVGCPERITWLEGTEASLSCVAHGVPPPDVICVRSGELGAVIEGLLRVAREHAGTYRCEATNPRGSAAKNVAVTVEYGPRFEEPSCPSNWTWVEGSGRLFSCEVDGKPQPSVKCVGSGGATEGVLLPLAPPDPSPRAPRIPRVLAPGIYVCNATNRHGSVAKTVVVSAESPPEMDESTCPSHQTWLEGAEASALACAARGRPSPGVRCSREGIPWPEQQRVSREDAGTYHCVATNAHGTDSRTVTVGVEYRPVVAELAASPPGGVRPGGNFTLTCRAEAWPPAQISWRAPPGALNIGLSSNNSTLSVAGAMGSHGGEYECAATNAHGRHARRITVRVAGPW

B1: SALM5 ECD-Fc (Fc fusion)
chain: QICPKRCVCQILSPNLATLCAKKGLLFVPPNIDRRTVELRLADNFVTNIKRKDFANMTSLVDLTLSRNTISFITPHAFADLRNLRALHLNSNRLTKITNDMFSGLSNLHHLILNNNQLTLISSTAFDDVFALEELDLSYNNLETIPWDAVEKMVSLHTLSLDHNMIDNIPKGTFSHLHKMTRLDVTSNKLQKLPPDPLFQRAQVLATSGIISPSTFALSFGGNPLHCNCELLWLRRLSREDDLETCASPPLLTGRYFWSIPEEEFLCEPPLITRHTHEMRVLEGQRATLRCKARGDPEPAIHWISPEGKLISNATRSLVYDNGTLDILITTVKDTGAFTCIASNPAGEATQIVDLHIIKLPHLLNSTNHIHEPDPGSSDISTSTKSGSNTSSSNGDTKLSQDKIVVAEATSSTALLKFNFQRNIPGIRMFQIQYNGTYDDTLVYRMIPPTSKTFLVNNLAAGTMYDLCVLAIYDDGITSLTATRVVGCIQFTTEQDYVRCHFMQSQFLGGTM
modifications: biotin on the AviTag (as SPR ligand)
B2: SALM3 ECD-Fc (Fc fusion)
chain: CPLPCVCQNLSESLSTLCAHRGLLFVPPNVDRRTVELRLADNFIQALGPPDFRNMTGLVDLTLSRNAITRIGARAFGDLESLRSLHLDGNRLVELGTGSLRGPVNLQHLILSGNQLGRIAPGAFDDFLESLEDLDLSYNNLRQVPWAGIGAMPALHTLNLDHNLIDALPPGAFAQLGQLSRLDLTSNRLATLAPDPLFSRGRDAEASPAPLVLSFSGNPLHCNCELLWLRRLARPDDLETCASPPGLAGRYFWAVPEGEFSCEPPLIARHTQRLWVLEGQRATLRCRALGDPAPTMHWVGPDDRLVGNSSRARAFPNGTLEIGVTGAGDAGGYTCIATNPAGEATARVELRVLALPHGGNSSAEGGRPGPSDIAASARTAAEGEGTLESEPAVQVTEVTATSGLVSWGPGRPADPVWMFQIQYNSSEDETLIYRIVPASSHHFLLKHLVPGADYDLCLLALSPAAGPSDLTATRLLGCAHFSTLPASPLCHALQAHVLGGTL
modifications: biotin on the AviTag (as SPR ligand)
B3: human ISLR2 ECD-Fc (Fc fusion)
chain: SCPEPCACVDKYAHQFADCAYKELREVPEGLPANVTTLSLSANKITVLRRGAFADVTQVTSLWLAHNEVRTVEPGALAVLSQLKNLDLSHNFISSFPWSDLRNLSALQLLKMNHNRLGSLPRDALGALPDLRSLRINNNRLRTLAPGTFDALSALSHLQLYHNPFHCGCGLVWLQAWAASTRVSLPEPDSIACASPPALQGVPVYRLPALPCAPPSVHLSAEPPLEAPGTPLRAGLAFVLHCIADGHPTPRLQWQLQIPGGTVVLEPPVLSGEDDGVGAEEGEGEGDGDLLTQTQAQTPTPAPAWPAPPATPRFLALANGSLLVPLLSAKEAGVYTCRAHNELGANSTSIRVAVAATGPPKHAPGAGGEPDGQAPTSERKSTAKGRGNSVLPSKPEGKIKGQGLAKVSILGETETEPEEDTSEGEEAEDQILADPAEEQRCGNGDPSRYVSNHAFNQSAELKPHVFELGVIALDVAEREARVQLTPLAARWGPGPGGAGGAPRPGRRPLRLLYLCPAGGGAAVQWSRVEEGVNAYWFRGLRPGTNYSVCLALAGEACHVQVVFSTKKELPS
modifications: biotin on the AviTag (as SPR ligand)

Experiments:
Experiment in all cases: SPR
PTPRS ECD-Fc = molecular target: T1, PTPRS ECD-Fc
PTPRD ECD-Fc = molecular target: T2, PTPRD ECD-Fc
PTPRF ECD-Fc = molecular target: T3, PTPRF ECD-Fc
ICAM5 ECD-Fc = molecular target: T4, ICAM5 ECD-Fc
LTF-Fc = LTF-Fc (human, UniProt P02788, biotin on the AviTag (as SPR ligand))
Sequence of LTF-Fc (P02788 20-710): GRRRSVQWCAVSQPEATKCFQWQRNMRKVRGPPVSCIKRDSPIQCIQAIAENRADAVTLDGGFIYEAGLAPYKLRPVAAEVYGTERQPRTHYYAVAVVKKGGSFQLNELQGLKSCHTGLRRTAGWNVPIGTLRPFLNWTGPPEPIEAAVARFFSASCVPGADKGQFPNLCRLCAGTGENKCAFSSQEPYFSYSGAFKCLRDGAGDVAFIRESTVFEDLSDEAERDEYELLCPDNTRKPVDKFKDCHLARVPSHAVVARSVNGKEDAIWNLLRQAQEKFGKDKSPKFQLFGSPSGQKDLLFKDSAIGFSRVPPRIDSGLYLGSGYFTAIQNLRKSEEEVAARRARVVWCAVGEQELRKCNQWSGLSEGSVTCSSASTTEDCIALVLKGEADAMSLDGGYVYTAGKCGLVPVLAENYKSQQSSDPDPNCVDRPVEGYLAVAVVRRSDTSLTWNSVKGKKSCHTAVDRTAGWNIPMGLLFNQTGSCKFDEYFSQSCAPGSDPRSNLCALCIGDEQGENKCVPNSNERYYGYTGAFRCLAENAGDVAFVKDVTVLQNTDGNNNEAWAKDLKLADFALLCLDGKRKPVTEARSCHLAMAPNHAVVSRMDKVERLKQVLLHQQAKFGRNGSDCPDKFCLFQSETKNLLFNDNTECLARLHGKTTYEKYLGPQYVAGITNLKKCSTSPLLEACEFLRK

| Binder | binding result (PTPRS ECD-Fc) | binding result (PTPRD ECD-Fc) | binding result (PTPRF ECD-Fc) | binding result (ICAM5 ECD-Fc) | binding result (LTF-Fc) |
| --- | --- | --- | --- | --- | --- |
| B1 | binds | binds | binds |  |  |
| B2 | binds | binds | binds |  |  |
| B3 |  |  |  | binds | binds |
